Holding throughout (assay): glycopeptide array
One assay deals with T1, T4 (Tn-MUC1) (PAPGSTAPPAHGVT(α-GalNAc)SAPDTRPAPG-OH).
T1 peptide: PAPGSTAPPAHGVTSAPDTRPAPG

The next assay addresses T2, T9 (Tn-MUC1) (PAPGSTAPPAHGVT(α-GalNAc)S(α-GalNAc)APDTRPAPG-OH).
T2 peptide: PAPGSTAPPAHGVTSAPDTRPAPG

The next assay addresses T3, T11 (Tn-MUC1) (PAPGSTAPPAHGVT(α-GalNAc)SAPDT(α-GalNAc)RPAPG-OH).
T3 peptide: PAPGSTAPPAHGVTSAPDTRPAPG

The next assay concerns the target T4, T8 (Tn-MUC1) (PAPGST(α-GalNAc)APPAHGVTSAPDT(α-GalNAc)RPAPG-OH).
T4 peptide: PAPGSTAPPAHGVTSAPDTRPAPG

The results in this text go back to patent US20230250190A1 (published 2023).

What is called EC50 is the concentration giving half of the maximal effect. Read a low EC50 as a more potent agent.

B1: 21 (antibody, V domains shown)
VH: QVQLVQSGAEVRKPGASVKFSCKASGYSFTHYYVHWVRQAPGQGLEWMGVINPFDSSTNYARKFQGRVTMTRDTSTTTVYMDLSSLRSEDTAVYFCARDAMEGDSYFDYWGQGTLVTVSS
Turning to B1, the EC50 stood at 0.051 µg/mL with T4 (Tn-MUC1), 0.058 µg/mL with T9 (Tn-MUC1), 0.071 µg/mL in the assay with T11 (Tn-MUC1) and 0.061 µg/mL with T8 (Tn-MUC1).

B2: 118 (antibody, V domains shown)
VH: QVQLVQSGAEVKKPGASVKVSCKASGYTFTNYYIQWVRQAPGQGLEWMGVINPYDGSTNYAQRFQGKITLTRDTSTTTVYMELSSLGSEDTAVYYCARDYMIGYVVFDYWGQGTMVTVSS
On to B2, for which the EC50 with T4 (Tn-MUC1) amounted to 0.097 µg/mL; in the assay with T9 (Tn-MUC1) it was 0.102 µg/mL; with T11 (Tn-MUC1), 0.143 µg/mL; with T8 (Tn-MUC1), 0.142 µg/mL.

B3: 110 (antibody, V domains shown)
VH: QVQLVQSGAEMKKPGASVKVSCKASGYTFTNYYIHWVRQAPGQGLEWMGVINPYDGSTNYAQKFQGRVTLTRDTSTTTVYMELSSLRSEDTAVYYCARDYMIGYVVFDFWGQGTLVTVSS
On to B3, for which the EC50 was 0.127 µg/mL with T4 (Tn-MUC1), 0.139 µg/mL with T9 (Tn-MUC1), 0.164 µg/mL with T11 (Tn-MUC1) and 0.153 µg/mL with T8 (Tn-MUC1).

B4: 114 (antibody, V domains shown)
VH: QVQLVQSGAEMKKPGASVTVSCKASGYTFTNYYIQWVRQAPGQGLEWMGVINPYDGSTNYAQRFQGRVTLTRDTTTTTVNMELSGLRSEDTAVYYCARDYMIGYVVFDFWGQGTLVTVSS
With B4, the EC50 with T4 (Tn-MUC1) was determined as 0.087 µg/mL; with T9 (Tn-MUC1) it was 0.076 µg/mL; with T11 (Tn-MUC1), 0.09 µg/mL; in the assay with T8 (Tn-MUC1), 0.085 µg/mL.

B5: 130 (antibody, V domains shown)
VH: QVQLVQSGAEVKKPGASVRVSCKASGYTFINYYLQWVRQAPGQGLEWMGTINPFDGSTHYAQKFQGRVTLTRDTSTSTVYMELNSLRSDDTAVYYCARDYMIGYVLFDYWGQGTLVTVSS
For the molecule B5, the 50% effective concentration (EC50) with T4 (Tn-MUC1) turned out to be 0.125 µg/mL; with T9 (Tn-MUC1) it was 0.117 µg/mL; with T11 (Tn-MUC1), 0.14 µg/mL; with T8 (Tn-MUC1), 0.116 µg/mL.

B6: 70 (antibody, V domains shown)
VH: QVQLVQSGAEVKKPGASVKVSCKASGYAFPNYYIHWVRQAPGQGLEWMGVINPYGGSTNYAQKFQGRVTMTRGTSTSTVYLELSSLRSEDTAVYYCARDAMKGDSFFDYWGQGTLVTVSS
With B6, the EC50 with T4 (Tn-MUC1) was 0.127 µg/mL; with T9 (Tn-MUC1) it was 0.151 µg/mL; with T11 (Tn-MUC1) it was 0.161 µg/mL; with T8 (Tn-MUC1), 0.149 µg/mL.

B7: 17 (antibody, V domains shown)
VH: QVQLVQSGAEVKKPGASVRVSCKASGYPFINYYIQWVRQAPGQGLEWMGVVNPYDGSTNYAQKFQGRVSITRDASTSTVFMELNSLRSEDTAVYYCARDSMLGHVIFDFWGQGTLVTVSS
Consider B7, for which the EC50 with T4 (Tn-MUC1) was determined as 0.098 µg/mL; in the assay with T9 (Tn-MUC1), 0.102 µg/mL; in the assay with T11 (Tn-MUC1), 0.126 µg/mL; with T8 (Tn-MUC1), 0.104 µg/mL.

B8: 142 (antibody, V domains shown)
VH: QVQLVQSGAEVKKPGASVMLSCKASGYIFTSYYIQWVRQAPGQGLEWMGVVNPYDGSTNYAQKFQGRVSITRDTSTSTVFMELNSLRSEDTAVYYCARDSMLGHVIFDFWGQGTLVTVSS
As to B8, the EC50 stood at 0.089 µg/mL with T4 (Tn-MUC1), 0.091 µg/mL with T9 (Tn-MUC1), 0.126 µg/mL with T11 (Tn-MUC1) and 0.108 µg/mL with T8 (Tn-MUC1).

B9: 182 (antibody, V domains shown)
VH: QVQLVQSGAEVKKPGASVKVSCKASGYSFTYSYIQWVRLAPGRGLEWMGVINPYDGSTDYAQKFQGRVTLTRDTSTTTVYMELSSLTSEDTAVYYCARDFMIGYVVFDYWGQGTLVTVSS
B9: the EC50 worked out at 0.093 µg/mL with T4 (Tn-MUC1), 0.085 µg/mL with T9 (Tn-MUC1), 0.11 µg/mL with T11 (Tn-MUC1) and 0.098 µg/mL with T8 (Tn-MUC1).

B10: 126 (antibody, V domains shown)
VH: QVQLVQSGAEVKKPGASVKVSCKASGYTFNRYYLHWVRQAPGQGLEWMGVINPYDGSTNYAQKFRGRVTMTRDTSTNTVYMELSSLRSEDTAVYFCARDAMEGDSYFDNWGQGTTVTVSS
As to B10, the EC50 with T4 (Tn-MUC1) is 0.143 µg/mL; with T9 (Tn-MUC1), 0.153 µg/mL; with T11 (Tn-MUC1), 0.195 µg/mL; in the assay with T8 (Tn-MUC1), 0.168 µg/mL.

B11: 166 (antibody, V domains shown)
VH: QVQLVESGAEVKKPGASVKVSCKASGYTFNRYYIHWVRQAPGQGLEWMGVINPSDGSTNYAQKFRGRITMTRDTSTNIVYMELSSLRSEDTAVYFCARDAMGGDSYFDNWGQGTLVTVSS
As for B11, the EC50 with T4 (Tn-MUC1) stood at 0.108 µg/mL; with T9 (Tn-MUC1), 0.095 µg/mL; with T11 (Tn-MUC1), 1.68 µg/mL; in the assay with T8 (Tn-MUC1) it was 1.85 µg/mL.

B12: 186 (antibody, V domains shown)
VH: QVQLVQSGAEVKKPGASVKVSCKASGYTFNRYYIHWVRQAPGQGLEWMGVINPYDGSTNYAQKFRGRITMTRDTSTNTVYMDLSSLRSEDTAVYFCARDAMEGDSYLDNWGRGTLVTVSS
In the case of B12, the EC50 came to 0.118 µg/mL with T4 (Tn-MUC1), 0.132 µg/mL with T9 (Tn-MUC1), 0.213 µg/mL in the assay with T11 (Tn-MUC1) and 0.203 µg/mL with T8 (Tn-MUC1).

B13: 122 (antibody, V domains shown)
VH: EVQLLESGAEVKKPGASVKVSCKASGYTFNRYYIHWVRQAPGQGLEWMGVINPYDGSTDYAQKFRDRITMTRDTSTNTVYMDLSSLRSEDTAVYFCARDAMEGDSYFDNWGRGTLVTVSS
With B13, the EC50 was found to be 0.108 µg/mL with T4 (Tn-MUC1), 0.1 µg/mL with T9 (Tn-MUC1), 0.133 µg/mL with T11 (Tn-MUC1) and 0.121 µg/mL in the assay with T8 (Tn-MUC1).

B14: 98 (antibody, V domains shown)
VH: QVQLVQSGAEVKKPGASVKVSCKASGYTFTSYYIQWLRQAPGQGLEWMGVINPTGGATNYAQKFQGRVTMTRETSTSMVHMELSSLRSEDTAVYYCARDYMRGYVVFDYWGQGTLVTVSS
As to B14, the EC50 with T4 (Tn-MUC1) was determined as 0.116 µg/mL; in the assay with T9 (Tn-MUC1), 0.102 µg/mL; with T11 (Tn-MUC1), 0.395 µg/mL; with T8 (Tn-MUC1) it was 0.263 µg/mL.

B15: 66 (antibody, V domains shown)
VH: QVQLVQSGAEVKKPGASVRVSCKASGYTFTNYYIHWVRQAPGHGLTWMGVINPFDSSTDYAQKFQGRVTMTRDTSTSTVYMDLSSLRSEDTAVYYCARDYMRGHVVFDYWGQGTLVTVSS
With B15, the EC50 in the assay with T4 (Tn-MUC1) was found to be 0.11 µg/mL; with T9 (Tn-MUC1), 0.123 µg/mL; with T11 (Tn-MUC1), 0.138 µg/mL; with T8 (Tn-MUC1), 0.123 µg/mL.

B16: 94 (antibody, V domains shown)
VH: QVQLVQSGAEVKKPGSSVKVSCKASGYTFNSYYIHWVRQAPGQGLTWMGVINPFDGSTDYAQKFQGRVTMTRDTSTSTVYMDLSSLRSEDTAVYYCARDYMRGYVVFDYWGRGTLVTVSS
As for B16, the EC50 came out at 0.034 µg/mL in the assay with T4 (Tn-MUC1), 0.033 µg/mL in the assay with T9 (Tn-MUC1), 0.04 µg/mL with T11 (Tn-MUC1) and 0.033 µg/mL with T8 (Tn-MUC1).

B17: 202 (antibody, V domains shown)
VH: QVQLVQSGAEVKNPGASVKFSCKASGYTFINYYLQWLRQAPGQGLEWMGTINPFDGSTSYAQNFQGRVTMTRDTSSTTVYMELNSLKSEDTAVYYCARDSMIGYVLFDSWGQGTLVTVSS
As for B17, the EC50 came out at 0.104 µg/mL in the assay with T4 (Tn-MUC1), 0.119 µg/mL with T9 (Tn-MUC1), 0.142 µg/mL with T11 (Tn-MUC1) and 0.125 µg/mL with T8 (Tn-MUC1).

B18: 53 (antibody, V domains shown)
VH: QVQLVQSGAEVKKPGASMTVSCKTSGYTFISYYIHWLRQAPGQGLEWLGVINPFGGATNYAQKFQGRVTMTRDTSTITVYMELSSLRSEDTAVYYCARDAMGGDSHFDFWGQGTLVTVSS
As to B18, the EC50 is 0.112 µg/mL in the assay with T4 (Tn-MUC1), 0.126 µg/mL in the assay with T9 (Tn-MUC1), 0.131 µg/mL with T11 (Tn-MUC1) and 0.122 µg/mL with T8 (Tn-MUC1).

B19: 49 (antibody, V domains shown)
VH: QVQLVESGAEVKKPGASVKVSCKASGYTFTRYYLHWVRQAPGQGLEWMGVINPYGGATNYAQKFQGRVTLTRDTSTSTVYMELNSLRSEDTAVYFCARDAMEGNSYFDHWGPGTLVTVSS
B19: the EC50 came out at 0.102 µg/mL in the assay with T4 (Tn-MUC1), 0.12 µg/mL with T9 (Tn-MUC1), 0.132 µg/mL with T11 (Tn-MUC1) and 0.124 µg/mL with T8 (Tn-MUC1).

B20: 134 (antibody, V domains shown)
VH: QVQLVQSGAEVKKPGASVEVSCKASGYTFINYYIHWVRQAPGQGLEWMGVINPFDGSTNYAQKFQGRVTVTRDTSTSTVFLDLSSLRPEDTAVYYCARDSMIGYVLFDYWGQGTLVTVSS
Take B20: the EC50 with T4 (Tn-MUC1) came to 0.11 µg/mL; with T9 (Tn-MUC1) it was 0.095 µg/mL; in the assay with T11 (Tn-MUC1) it was 0.131 µg/mL; in the assay with T8 (Tn-MUC1), 0.113 µg/mL.

B21: 154 (antibody, V domains shown)
VH: QVQLVQSGAEVKKSGASVKVSCKASGYIFTSYYIQWVRQAPGQGLEWMGVINPFDGSTDYAQKFQGRVTVTRDTSTTTVFMELSSLRSEDTAVYYCARDNMLGYVLFDYWGQGTLVTVSS
B21: the EC50 is 0.13 µg/mL with T4 (Tn-MUC1), 0.106 µg/mL in the assay with T9 (Tn-MUC1), 0.196 µg/mL with T11 (Tn-MUC1) and 0.162 µg/mL in the assay with T8 (Tn-MUC1).

B22: 158 (antibody, V domains shown)
VH: QVQLVQSGAEVKKPGASVKVSCKASGYTFTSYYMHWVRQAPGQGLEWMGVINPFDGSTNYAQKFQGRVTVTRDTATTTVFMDLSSLRSEDTAVYYCARDNMLGYVLFDYWGQGTLVTVSS
B22: the EC50 in the assay with T4 (Tn-MUC1) is 0.095 µg/mL; in the assay with T9 (Tn-MUC1) it was 0.088 µg/mL; in the assay with T11 (Tn-MUC1), 0.235 µg/mL; with T8 (Tn-MUC1), 0.242 µg/mL.
